Measurements as given in patent US20120107329.

The substances below were run against recombinant human zonulin/pre-HP2 with a 6×His tag at the C-terminus, from baculovirus-infected Sf9 cells (UniProt P00738).
recombinant human zonulin/pre-HP2 with a 6×His tag at the C-terminus, from baculovirus-infected Sf9 cells, sequence (P00738 19-406, tags left off): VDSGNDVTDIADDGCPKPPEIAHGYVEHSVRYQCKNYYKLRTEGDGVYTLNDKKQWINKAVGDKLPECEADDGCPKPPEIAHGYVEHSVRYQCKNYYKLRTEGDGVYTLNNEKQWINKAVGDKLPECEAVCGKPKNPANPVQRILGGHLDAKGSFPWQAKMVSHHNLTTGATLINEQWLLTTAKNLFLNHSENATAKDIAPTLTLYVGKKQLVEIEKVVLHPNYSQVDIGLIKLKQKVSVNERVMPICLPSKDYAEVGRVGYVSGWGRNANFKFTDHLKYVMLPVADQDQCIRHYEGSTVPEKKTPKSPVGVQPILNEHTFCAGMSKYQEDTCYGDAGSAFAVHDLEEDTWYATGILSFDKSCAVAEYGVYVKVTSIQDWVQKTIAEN
matriptase was tested, and the “proteolytic cleavage, SDS-PAGE” value was “Matriptase, urokinase, thrombin, and plasma kallikrein did not cleave pre-HP2”.
For plasma kallikrein, the “proteolytic cleavage, SDS-PAGE” value was “Matriptase, urokinase, thrombin, and plasma kallikrein did not cleave pre-HP2”.
For plasmin, the “proteolytic cleavage, SDS-PAGE” value was “plasmin caused complete degradation of the protein”.
thrombin was tested, and the “proteolytic cleavage, SDS-PAGE” value was “Matriptase, urokinase, thrombin, and plasma kallikrein did not cleave pre-HP2”.
In the case of “trypsin (intestinal serine protease; trypsin-agarose beads, Sigma T-1763)”, the “proteolytic cleavage, SDS-PAGE” value is reported as “treatment with the intestinal serine protease trypsin led to the appearance of two major bands that migrated with molecular weights compatible with the a2 and b subunits of zonulin”.
In the case of urokinase, the “proteolytic cleavage, SDS-PAGE” value is reported as “Matriptase, urokinase, thrombin, and plasma kallikrein did not cleave pre-HP2”.
